# Assay results reported in patent US20200281934A1, “SSTR-TARGETED CONJUGATES AND FORMULATIONS THEREOF” (TARVEDA THERAPEUTICS, INC., priority 2017, published 2020).
# Where two headings read alike, the source gives them in different places.
# Experiments:
# Type in all cases: in vivo, human
# [1] = tested on: somatostatin receptor 2 expressing advanced cancers; assay: Phase 1 preliminary anti-tumor activity (RECIST 1.1, duration of response)
# Source text: (§1) The objectives of Phase 1 were to assess the safety and tolerability and determine the maximum tolerated dose and recommended Phase 2 dose of Conjugate 57 when administered intravenously on an every 3 week schedule in patients with somatostatin receptor 2 expressing advanced cancers (including gastroenteropancreatic or lung or thymus or other neuroendocrine tumors or small cell lung cancer or large cell neuroendocrine carcinoma of the lung). It also characterized both acute and chronic toxicities of Conjugate 57, characterized key pharmacokinetic parameters of Conjugate 57, DM1, and peptide ligand from Conjugate 57, assessed the potential of Conjugate 57 to induce anti-drug antibodies, and assessed preliminary anti-tumor activity by using standard tumor response criteria (RECIST 1.1) and pharmacodynamic (PDc) biomarker changes that include chromogranin A (CgA), neuron-specific enolase (NSE), and circulating tumor cells (CTCs) in the blood, and 5-hydroxyindoleacetic acid (5-HIAA) in the urine. In addition, the study explored the relationships between tumor SSTR2 expression as measured by multiple modalities (somatostatin analog radioimaging, immunohistochemistry, CTCs, or exosome analyses) and PK, efficacy, safety, anti-Conjugate 57 antibodies, and PDc biomarker changes in the blood. Phase 1 study had two parts: Phase 1 Part A (dose escalation) and Phase 1 Part B (early expansion).
# All patients were required to have SSTR2 expressing tumors. Tumor SSTR2 expression was determined by imaging within the preceding approximately 6 months, with Octreoscan or ^68Ga-DOTATATE, ^68Ga-DOTATOC, or ^68Ga-DOTANOC.
# The acetate salt of Conjugate 57 was administered to a patient as a 1 hour IV infusion once on an every 3 week schedule to escalating cohorts of 2-6 patients. Patients received Conjugate 57 treatment for 3 weeks, 6 weeks, 9 weeks, 12 weeks, 15 weeks, 18 weeks, 21 weeks, 24 weeks, 27 weeks, 30 weeks, 33 weeks, 36 weeks, 39 weeks, 42 weeks, 45 weeks, 48 weeks, 51 weeks, 54 weeks, 57 weeks, or 60 weeks. There were 7 Cohorts with the starting does of 1.0 mg and the highest dose of 25.0 mg. The doses of Conjugate 57 given to pateints were flat: 1.0 mg, 2.0 mg, 4.0 mg, 8.0 mg, 12.0 mg, 18.0 mg and 25.0 mg. Conjugate 57 concentrate for Solution for Injection is a sterile concentrated liquid containing Conjugate 57, mannitol, Polyoxyl 15 Hydroxystearate and acetate buffer. Each dosage unit contains 2.5 mg of Conjugate 57 (free-form) per mL, 50 mg/mL mannitol, 20 mg/mL Polyoxyl 15 Hydroxystearate and pH 4.0-4.8 acetate buffer in a stoppered 10 mL clear vial. Prior to administration, the product was diluted with 5% Mannitol Injection USP. […]
# (§2) Disease response was assessed by duration of response and RECIST 1.1. […]
# [2] = Phase 1 safety, tolerability and maximum tolerated dose; details: patients
# Source text: as §1, with “Phase 1 study had two parts: Phase 1 Part A (dose escalation) and Phase 1 Part B (early expansion).” left out
# as §2
# [3] = Phase 1 plasma pharmacokinetics of Conjugate 57 during dose escalation; details: for AUC(0-inf) / Cmax / clearance / Vd: mean, 1 hour IV infusion; for Vd: read-out: Vz
# Procedure: The acetate salt of Conjugate 57 was administered to a patient as a 1 hour IV infusion once on an every 3 week schedule to escalating cohorts of 2-6 patients. Patients received Conjugate 57 treatment for 3 weeks, 6 weeks, 9 weeks, 12 weeks, 15 weeks, 18 weeks, 21 weeks, 24 weeks, 27 weeks, 30 weeks, 33 weeks, 36 weeks, 39 weeks, 42 weeks, 45 weeks, 48 weeks, 51 weeks, 54 weeks, 57 weeks, or 60 weeks. There were 7 Cohorts with the starting does of 1.0 mg and the highest dose of 25.0 mg. The doses of Conjugate 57 given to pateints were flat: 1.0 mg, 2.0 mg, 4.0 mg, 8.0 mg, 12.0 mg, 18.0 mg and 25.0 mg. Conjugate 57 concentrate for Solution for Injection is a sterile concentrated liquid containing Conjugate 57, mannitol, Polyoxyl 15 Hydroxystearate and acetate buffer. Each dosage unit contains 2.5 mg of Conjugate 57 (free-form) per mL, 50 mg/mL mannitol, 20 mg/mL Polyoxyl 15 Hydroxystearate and pH 4.0-4.8 acetate buffer in a stoppered 10 mL clear vial. Prior to administration, the product was diluted with 5% Mannitol Injection USP. The resulting diluted Conjugate 57 formulation can be infused intravenously.
# Serial PK samples were collected prior, during and up to 10 hours after the start of infusion on Day 1 of Cycle 1 and Cycle 3.
# Cmax is the maximum (or peak) serum concentration of a drug after the drug has been administrated and before the administration of a second dose. Area under curve to infinity (AUCinf) is a is a theoretical measure of the total exposure of drug to the body from administration till all the drug is eliminated. Clearance (CL) is the volume of plasma cleared of drug per unit time. It is an index of how well a drug is removed irreversibly from circulation. Volume of distribution (Vz) was also measured. Vz represents the degree to which a drug is distributed in body tissue rather than the plasma.
# [4] = tested on: GI (large bowel) NET; assay: Circulating biomarkers of neuroendocrine tumors and symptoms in a GI NET patient; details: 18 mg
# Source text: as §1
# A patient with well differentiated, intermediate grade GI (large bowel) NET with metastasis to lymph nodes, bone, lung, and brain was treated with Conjugate 57 at 18 mg. Their tumors progressed on all prior therapies: lanreotide, mTOR inhibitor, and/or 177Lu-DOTATATE. […] Circulating biomarkers of neuroendocrine tumors (NETs), including chromogranin A (CgA), neuron specific enolase (NSE) and circulating tumor cells (CTC), were collected and measured over time. Increased CgA is predictive of poor morphological response, progression free survival (PFS), and overall survival (OS) in pancreatic NETs. Decline in plasma concentration of NSE has been associated with response to treatment. Changes in CTCs has been associated with response to treatment in patients with NETs.
# [5] = human, plasma, patients, dose 1 mg
# [6] = human, plasma, patients, dose 2 mg
# [7] = human, plasma, patients, dose 4 mg
# [8] = human, plasma, patients, dose 8 mg
# [9] = human, plasma, patients, dose 12 mg
# [10] = human, plasma, patients, dose 18 mg
# [11] = human, plasma, patients, dose 25 mg
structure (smiles),measurement,setting,value
COc1cc2cc(c1Cl)N(C)C(=O)C[C@H](OC(=O)[C@H](C)N(C)C(=O)CCSSC[C@H](NC(=O)[C@@H]1CSSC[C@H](NC(=O)[C@H](N)Cc3ccccc3)C(=O)N[C@@H](Cc3ccc(O)cc3)C(=O)N[C@H](Cc3c[nH]c4ccccc34)C(=O)N[C@@H](CCCCN)C(=O)N[C@@H]([C@@H](C)O)C(=O)N1)C(N)=O)[C@]1(C)O[C@H]1[C@H](C)[C@@H]1C[C@@](O)(NC(=O)O1)[C@H](OC)/C=C/C=C(\C)C2 [Conjugate 57],ongoing patients with SD for 44 and 45 weeks,[1]; NET patients,2 patients
same,patients with stable disease (SD) at 9 weeks,[1]; among 15 NET patients evaluable for response,11 patients
same,patients with target lesion shrinkage,[1]; dose range 8-18 mg,3 patients
same,patients with SD sustained for 18-45 weeks,[1]; of the 11 NET patients with SD at 9 weeks,8 patients
same,tolerability,[2]; 1.0-25.0 mg IV every 3 weeks,well tolerated
same,maximum tolerated dose (MTD),"[2]; IV infusion every 3 weeks, flat dose",18 mg
same,AUCinf relative to efficacious exposure threshold seen in pre-clinical xenograft studies of SCLC models,[3]; 12 mg and higher dose cohorts,above efficacious exposure threshold
same,half-life,"[3]; human, intravenous, plasma, patients, across all dose cohorts, read-out: Median t½ (half-life) (converted)",1.7 h
same,AUC(0-inf),[3]; [5],0.0146 µM·h
same,Cmax,[3]; [5],7.47 nM
same,clearance,[3]; [5],633 mL/min
same,Vd,[3]; [5],65 L
same,AUC(0-inf),[3]; [6],0.0379 µM·h
same,Cmax,[3]; [6],20.5 nM
same,clearance,[3]; [6],583 mL/min
same,Vd,[3]; [6],80 L
same,AUC(0-inf),[3]; [7],0.118 µM·h
same,Cmax,[3]; [7],74.3 nM
same,clearance,[3]; [7],333 mL/min
same,Vd,[3]; [7],60 L
same,AUC(0-inf),[3]; [8],0.341 µM·h
same,Cmax,[3]; [8],186 nM
same,clearance,[3]; [8],250 mL/min
same,Vd,[3]; [8],37 L
same,AUC(0-inf),[3]; [9],0.584 µM·h
same,Cmax,[3]; [9],293 nM
same,clearance,[3]; [9],217 mL/min
same,Vd,[3]; [9],33 L
same,AUC(0-inf),[3]; [10],0.666 µM·h
same,Cmax,[3]; [10],381 nM
same,clearance,[3]; [10],267 mL/min
same,Vd,[3]; [10],36 L
same,AUC(0-inf),[3]; [11],1.31 µM·h
same,Cmax,[3]; [11],741 nM
same,clearance,[3]; [11],183 mL/min
same,Vd,[3]; [11],50 L
same,disease related symptoms of flushing,[4],disappeared after first dose
same,chromogranin A (CgA) level,[4]; FIG. 2A,decreased over time
same,neuron specific enolase (NSE) level,[4]; FIG. 2B,decreased over time
same,circulating tumor cells (CTC) level,[4]; FIG. 2C,decreased over time
